Data from patent publication US20230034906A1 (TRINOMAB BIOTECH, published 2023).

T1: homologous sequence of gB glycoprotein of 56 virus strains (gB_Con. Strain) (human cytomegalovirus (homologous …, UniProt P06473 25-699))
T1 construct: C-terminal tags are part of the entry
T1 chain: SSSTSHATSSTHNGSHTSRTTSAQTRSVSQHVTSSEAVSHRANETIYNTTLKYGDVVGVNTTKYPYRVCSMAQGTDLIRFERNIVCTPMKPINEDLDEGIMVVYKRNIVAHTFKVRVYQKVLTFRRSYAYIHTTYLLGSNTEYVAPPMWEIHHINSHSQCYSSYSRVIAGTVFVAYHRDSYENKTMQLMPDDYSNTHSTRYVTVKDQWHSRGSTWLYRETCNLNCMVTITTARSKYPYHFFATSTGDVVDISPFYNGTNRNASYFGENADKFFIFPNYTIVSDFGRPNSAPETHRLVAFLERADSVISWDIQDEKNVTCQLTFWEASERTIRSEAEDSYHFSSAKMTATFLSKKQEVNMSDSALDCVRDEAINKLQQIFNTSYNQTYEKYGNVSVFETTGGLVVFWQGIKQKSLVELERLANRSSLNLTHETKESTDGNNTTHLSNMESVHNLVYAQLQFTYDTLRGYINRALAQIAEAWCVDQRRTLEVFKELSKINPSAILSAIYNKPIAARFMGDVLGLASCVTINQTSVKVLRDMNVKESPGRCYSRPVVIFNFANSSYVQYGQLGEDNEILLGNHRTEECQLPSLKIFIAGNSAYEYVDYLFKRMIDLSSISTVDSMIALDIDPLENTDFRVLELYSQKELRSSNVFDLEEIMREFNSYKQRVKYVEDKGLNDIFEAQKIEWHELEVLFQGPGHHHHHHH

T2: gB_Towne protein with N383 mutated into glutamine (human cytomegalovirus, strain Towne, UniProt F5HB53 25-700)
T2 chain: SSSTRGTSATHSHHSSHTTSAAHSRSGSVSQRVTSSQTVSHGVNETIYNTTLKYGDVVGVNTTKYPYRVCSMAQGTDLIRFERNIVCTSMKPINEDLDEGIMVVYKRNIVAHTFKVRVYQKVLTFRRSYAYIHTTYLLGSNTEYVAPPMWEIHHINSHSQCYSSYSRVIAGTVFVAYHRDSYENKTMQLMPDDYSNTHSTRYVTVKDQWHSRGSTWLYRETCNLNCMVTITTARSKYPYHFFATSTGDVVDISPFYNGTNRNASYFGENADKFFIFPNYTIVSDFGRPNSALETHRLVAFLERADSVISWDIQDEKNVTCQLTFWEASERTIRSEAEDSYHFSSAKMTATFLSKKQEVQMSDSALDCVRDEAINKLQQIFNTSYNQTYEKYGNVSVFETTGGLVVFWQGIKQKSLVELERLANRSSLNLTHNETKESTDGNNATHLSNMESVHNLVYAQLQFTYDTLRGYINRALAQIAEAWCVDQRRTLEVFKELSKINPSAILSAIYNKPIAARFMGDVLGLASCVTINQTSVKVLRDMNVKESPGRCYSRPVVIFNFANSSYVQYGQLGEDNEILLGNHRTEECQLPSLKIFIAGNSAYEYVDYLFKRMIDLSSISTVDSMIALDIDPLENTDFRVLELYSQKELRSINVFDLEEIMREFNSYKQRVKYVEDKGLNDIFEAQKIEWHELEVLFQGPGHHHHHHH


Legend:
[1] = target: T3, HCMV gB glycoprotein of standard strain Towne (gB_Towne strain) (human cytomegalovirus, strain Towne, UniProt F5HB53 25-700); assay: SPR (Biacore), antibody captured by anti-human IgG (Fc) on CM5 chip, gB in solution
T3 construct: also called antigen protein gB0049

[2] = target: gB glycoprotein of HCMV standard strain Towne, on the virus (human cytomegalovirus, strain Towne, UniProt P13201 23-907); assay: cell-based or functional assay
Chain of gB glycoprotein of HCMV standard strain Towne, on the virus (P13201 23-907 limits assumed): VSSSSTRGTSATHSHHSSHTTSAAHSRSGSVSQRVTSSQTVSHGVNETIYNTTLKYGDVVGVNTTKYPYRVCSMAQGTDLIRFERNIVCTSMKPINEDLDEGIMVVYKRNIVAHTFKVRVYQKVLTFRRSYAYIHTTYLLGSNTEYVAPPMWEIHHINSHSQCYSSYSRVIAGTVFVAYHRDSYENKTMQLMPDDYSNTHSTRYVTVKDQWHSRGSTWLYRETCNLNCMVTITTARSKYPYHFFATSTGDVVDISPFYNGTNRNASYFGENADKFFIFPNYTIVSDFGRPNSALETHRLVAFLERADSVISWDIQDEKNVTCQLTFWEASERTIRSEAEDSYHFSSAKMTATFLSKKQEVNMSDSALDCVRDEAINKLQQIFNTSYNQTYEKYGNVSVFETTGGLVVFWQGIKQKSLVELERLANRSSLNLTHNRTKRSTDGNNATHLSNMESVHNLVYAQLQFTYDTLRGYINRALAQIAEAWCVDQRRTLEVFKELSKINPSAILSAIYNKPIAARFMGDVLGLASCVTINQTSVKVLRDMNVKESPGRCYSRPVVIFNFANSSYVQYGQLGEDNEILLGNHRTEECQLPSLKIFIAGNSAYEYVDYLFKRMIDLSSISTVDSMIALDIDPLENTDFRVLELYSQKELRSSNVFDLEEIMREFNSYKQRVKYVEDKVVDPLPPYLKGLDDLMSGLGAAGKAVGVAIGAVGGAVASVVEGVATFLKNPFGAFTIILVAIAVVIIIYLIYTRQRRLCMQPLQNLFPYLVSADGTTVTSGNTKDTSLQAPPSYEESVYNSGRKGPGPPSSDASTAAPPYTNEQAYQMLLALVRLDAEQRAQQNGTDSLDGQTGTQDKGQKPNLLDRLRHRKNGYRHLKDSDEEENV

[3] = target: T1, homologous sequence of gB glycoprotein …; assay: ELISA, HEK293 culture supernatant on gB
[4] = target: T2, gB_Towne protein with N383 mutated into …; assay: indirect ELISA, antibody titrated on gB glycoprotein mutant

Row | Binder | Kd [1] [nM] | EC50 of neutralizing Towne virus infection in primary HUVEC cells [2] [µg/mL] | binding result [3] | binding result [4]
1 | TRN1020 (antibody, V domains shown, Fully human antibody; lambda light chain) VH: EVQLVESGGGLAQPGGSLRLSCEASGFSFSTYAMSWVRQAPGKGLEWVAAVSGRGTSTFYLDSVKGRFTVSRDNSRTTVFLQMNSLKVEDTAFYYCAKDSYVGGSFDWLPRPDYFDHWGRGVLVTVSS VL: QSVLTQPPSLSATPGQTVTISCSGSNSNIGKNYVSWYQQLPGAAPKLLLYNNNLRPSGIPARFSGSKSGTSATLGITGLQAGDEATYSCATWDKTLNFWVFGGGTKVTVLG | 0.6 | 0.041 | binds | 
2 | TRN1018 (antibody, V domains shown, Fully human antibody; kappa light chain) VH: QVQLVQSGGGVVQPGRSLRLSCAASGFTFSNHGIHWVRQAPGKGLEWVAVISSDGTDTRDADSVRGRFTISRDNSRNTVYLDMNSLRAEDTAVYYCARDGRCGDERCYSGLPDVWGRGTRVSVSS VL: EIVLTQSPATLSLSPGERATLSCRASQSVGGYLAWYQQKVGQAPRLLIYDASNRATGIPARFSGSGSGTDFTLTISSLEPEDFAVYYCQQRSNWPPLTFGGGTKVEIKR | 27.9 |  | binds | 
3 | TRN1017 (antibody, V domains shown, lambda light chain; expressed in HEK293 cells) VH: QVLLVQSGGGLVQPGGSLRLACETSGFTFRHYWMHWVRQAPGKGLVWLSSIHGSGTTTRYADSVKGRFTISRDNAKNILFLQINSPRPEDTATYYCVRDDYTSGYNWGQGAFVTVSS VL: QSALTQPASVSGSRGQSITIPCTGSRSDVGGYNYVSWYQQRPGKAPKLILYDVSHRPSGISDRFSGSKLGDTASLTISGLRDEDEADYYCSSYTTKSTLYVFGTGTTVSVLG |  | 0.089 |  | binds
